Measurements: patent US20050026839A1 (GENERAL HOSPITAL, published 2005)
Square brackets hold non-standard residues; d marks the D form. Ends that are not written are not given here. hArg = N=C(N)NCCCC[C@H](N)C(=O)O; Nle = CCCC[C@H](N)C(=O)O; Aib = CC(C)(N)C(=O)O

B1: [Aib^4,M]PTH(1-14) (peptide)
peptide: AVA[Aib]IQLMHQ[hArg]AKW-NH2
modifications: N-terminus assumed
SMILES: CC[C@H](C)[C@H](NC(=O)C(C)(C)NC(=O)[C@H](C)NC(=O)[C@@H](NC(=O)[C@H](C)N)C(C)C)C(=O)N[C@@H](CCC(N)=O)C(=O)N[C@@H](CC(C)C)C(=O)N[C@@H](CCSC)C(=O)N[C@@H](Cc1c[nH]cn1)C(=O)N[C@@H](CCC(N)=O)C(=O)N[C@@H](CCCCNC(=N)N)C(=O)N[C@@H](C)C(=O)N[C@@H](CCCCN)C(=O)N[C@@H](Cc1c[nH]c2ccccc12)C(N)=O
notes: Aib scan of [M]PTH(1-14); also called 625 Aib-4
B2: [Aib^6,M]PTH(1-14) (peptide)
peptide: AVAEI[Aib]LMHQ[hArg]AKW-NH2
modifications: N-terminus assumed
SMILES: CC[C@H](C)[C@H](NC(=O)[C@H](CCC(=O)O)NC(=O)[C@H](C)NC(=O)[C@@H](NC(=O)[C@H](C)N)C(C)C)C(=O)NC(C)(C)C(=O)N[C@@H](CC(C)C)C(=O)N[C@@H](CCSC)C(=O)N[C@@H](Cc1c[nH]cn1)C(=O)N[C@@H](CCC(N)=O)C(=O)N[C@@H](CCCCNC(=N)N)C(=O)N[C@@H](C)C(=O)N[C@@H](CCCCN)C(=O)N[C@@H](Cc1c[nH]c2ccccc12)C(N)=O
notes: Aib scan of [M]PTH(1-14); also called 627 Aib-6
B3: [Aib^7,M]PTH(1-14) (peptide)
peptide: AVAEIQ[Aib]MHQ[hArg]AKW-NH2
modifications: N-terminus assumed
SMILES: CC[C@H](C)[C@H](NC(=O)[C@H](CCC(=O)O)NC(=O)[C@H](C)NC(=O)[C@@H](NC(=O)[C@H](C)N)C(C)C)C(=O)N[C@@H](CCC(N)=O)C(=O)NC(C)(C)C(=O)N[C@@H](CCSC)C(=O)N[C@@H](Cc1c[nH]cn1)C(=O)N[C@@H](CCC(N)=O)C(=O)N[C@@H](CCCCNC(=N)N)C(=O)N[C@@H](C)C(=O)N[C@@H](CCCCN)C(=O)N[C@@H](Cc1c[nH]c2ccccc12)C(N)=O
notes: Aib scan of [M]PTH(1-14); also called 628 Aib-7
B4: [Aib^8,M]PTH(1-14) (peptide)
peptide: AVAEIQL[Aib]HQ[hArg]AKW-NH2
modifications: N-terminus assumed
SMILES: CC[C@H](C)[C@H](NC(=O)[C@H](CCC(=O)O)NC(=O)[C@H](C)NC(=O)[C@@H](NC(=O)[C@H](C)N)C(C)C)C(=O)N[C@@H](CCC(N)=O)C(=O)N[C@@H](CC(C)C)C(=O)NC(C)(C)C(=O)N[C@@H](Cc1c[nH]cn1)C(=O)N[C@@H](CCC(N)=O)C(=O)N[C@@H](CCCCNC(=N)N)C(=O)N[C@@H](C)C(=O)N[C@@H](CCCCN)C(=O)N[C@@H](Cc1c[nH]c2ccccc12)C(N)=O
notes: Aib scan of [M]PTH(1-14); also called 629 Aib-8
B5: [Aib^9,M]PTH(1-14) (peptide)
peptide: AVAEIQLM[Aib]Q[hArg]AKW-NH2
modifications: N-terminus assumed
SMILES: CC[C@H](C)[C@H](NC(=O)[C@H](CCC(=O)O)NC(=O)[C@H](C)NC(=O)[C@@H](NC(=O)[C@H](C)N)C(C)C)C(=O)N[C@@H](CCC(N)=O)C(=O)N[C@@H](CC(C)C)C(=O)N[C@@H](CCSC)C(=O)NC(C)(C)C(=O)N[C@@H](CCC(N)=O)C(=O)N[C@@H](CCCCNC(=N)N)C(=O)N[C@@H](C)C(=O)N[C@@H](CCCCN)C(=O)N[C@@H](Cc1c[nH]c2ccccc12)C(N)=O
notes: Aib scan of [M]PTH(1-14); also called 630 Aib-9
B6: [Aib^10,M]PTH(1-14) (peptide)
peptide: AVAEIQLMH[Aib][hArg]AKW-NH2
modifications: N-terminus assumed
SMILES: CC[C@H](C)[C@H](NC(=O)[C@H](CCC(=O)O)NC(=O)[C@H](C)NC(=O)[C@@H](NC(=O)[C@H](C)N)C(C)C)C(=O)N[C@@H](CCC(N)=O)C(=O)N[C@@H](CC(C)C)C(=O)N[C@@H](CCSC)C(=O)N[C@@H](Cc1c[nH]cn1)C(=O)NC(C)(C)C(=O)N[C@@H](CCCCNC(=N)N)C(=O)N[C@@H](C)C(=O)N[C@@H](CCCCN)C(=O)N[C@@H](Cc1c[nH]c2ccccc12)C(N)=O
notes: Aib scan of [M]PTH(1-14); Aib replaces the Gln^10 of [M]; also called 631 Aib-10
B7: [Aib^1,3]PTH(1-9) (peptide)
peptide: [Aib]V[Aib]EIQLMH-NH2
modifications: N-terminus assumed
SMILES: CC[C@H](C)[C@H](NC(=O)[C@H](CCC(=O)O)NC(=O)C(C)(C)NC(=O)[C@@H](NC(=O)C(C)(C)N)C(C)C)C(=O)N[C@@H](CCC(N)=O)C(=O)N[C@@H](CC(C)C)C(=O)N[C@@H](CCSC)C(=O)N[C@@H](Cc1c[nH]cn1)C(N)=O
B8: [Aib^2,M]PTH(1-14) (peptide)
peptide: A[Aib]AEIQLMHQ[hArg]AKW-NH2
modifications: N-terminus assumed
SMILES: CC[C@H](C)[C@H](NC(=O)[C@H](CCC(=O)O)NC(=O)[C@H](C)NC(=O)C(C)(C)NC(=O)[C@H](C)N)C(=O)N[C@@H](CCC(N)=O)C(=O)N[C@@H](CC(C)C)C(=O)N[C@@H](CCSC)C(=O)N[C@@H](Cc1c[nH]cn1)C(=O)N[C@@H](CCC(N)=O)C(=O)N[C@@H](CCCCNC(=N)N)C(=O)N[C@@H](C)C(=O)N[C@@H](CCCCN)C(=O)N[C@@H](Cc1c[nH]c2ccccc12)C(N)=O
notes: Aib scan of [M]PTH(1-14); also called 623 Aib-2
B9: [Ala^3,12,Nle^8,Gln^10,Har^11,Trp^14,Arg^19,Tyr^21]PTH(1-21)amide (peptide)
peptide: AVAEIQL[Nle]HQ[hArg]AKWLASVRRY-NH2
modifications: N-terminus assumed
SMILES: CCCC[C@H](NC(=O)[C@H](CC(C)C)NC(=O)[C@H](CCC(N)=O)NC(=O)[C@@H](NC(=O)[C@H](CCC(=O)O)NC(=O)[C@H](C)NC(=O)[C@@H](NC(=O)[C@H](C)N)C(C)C)[C@@H](C)CC)C(=O)N[C@@H](Cc1c[nH]cn1)C(=O)N[C@@H](CCC(N)=O)C(=O)N[C@@H](CCCCNC(=N)N)C(=O)N[C@@H](C)C(=O)N[C@@H](CCCCN)C(=O)N[C@@H](Cc1c[nH]c2ccccc12)C(=O)N[C@@H](CC(C)C)C(=O)N[C@@H](C)C(=O)N[C@@H](CO)C(=O)N[C@H](C(=O)N[C@@H](CCCNC(=N)N)C(=O)N[C@@H](CCCNC(=N)N)C(=O)N[C@@H](Cc1ccc(O)cc1)C(N)=O)C(C)C
notes: unlabeled peptide; also called [M]PTH(1-21); 608 [M]PTH(1-21)

Each binder was assayed against T1, wild-type human PTH/PTHrP receptor (hP1R-WT) (human, UniProt Q03431 27-593) (assay: cell-based or functional assay).
T1 sequence (looked up): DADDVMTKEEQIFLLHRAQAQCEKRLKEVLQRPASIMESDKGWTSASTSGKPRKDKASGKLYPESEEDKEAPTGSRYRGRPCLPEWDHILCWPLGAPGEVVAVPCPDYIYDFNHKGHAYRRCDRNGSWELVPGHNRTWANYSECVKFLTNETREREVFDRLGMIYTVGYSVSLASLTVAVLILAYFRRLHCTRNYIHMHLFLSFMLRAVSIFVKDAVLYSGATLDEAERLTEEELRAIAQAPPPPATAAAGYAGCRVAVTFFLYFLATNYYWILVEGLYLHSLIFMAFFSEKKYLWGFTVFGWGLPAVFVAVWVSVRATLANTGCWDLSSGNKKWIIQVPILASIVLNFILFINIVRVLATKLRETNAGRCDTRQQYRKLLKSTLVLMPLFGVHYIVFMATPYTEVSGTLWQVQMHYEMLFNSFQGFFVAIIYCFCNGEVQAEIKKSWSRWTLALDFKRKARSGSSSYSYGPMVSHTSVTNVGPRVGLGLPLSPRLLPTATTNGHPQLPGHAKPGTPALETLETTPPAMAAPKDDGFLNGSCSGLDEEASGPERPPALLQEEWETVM

Binder	cAMP EC50 [µM]	cAMP EMax(obs.) [pmole/well]
B1	17	221
B2	230	116
B3	2.6	275
B4	1500	34
B5	710	51
B6	3	214
B7	> 10	10
B8	47	168

These binders were tested against T1, wild-type human PTH/PTHrP receptor … (assay: competition binding, 125I-[M]PTH(1-21) tracer, HKRK-B28 cells, 4 h at 4 C).
Method: (§1) Competition Binding. Binding reactions were performed with HKRK-B28 cells or in COS-7 cells in 24-well plates. The cells were rinsed with 0.5 mL of binding buffer, and then treated successively with 100 μL binding buffer, 100 μL of binding buffer containing various amounts of unlabeled competitor ligand, and 100 μL of binding buffer containing ca. 100,000 cpm of ¹²⁵I-[M]PTH(1-21) or ¹²⁵I-[Aib^{1,3},M]PTH(1-21)} (ca. 26 fmol; final volume=300 μL). Incubations were 4 to 6 h at 4° C., at which time near equilibrium conditions were attained. Cells were then placed on ice, the binding medium was removed, and the monolayer was rinsed three times with 0.5 mL of cold binding buffer. The cells were subsequently lysed with 0.5 mL […] NaOH and counted for radioactivity. For each tracer and in each experiment, the non-specific binding was determined as the radioactivity that bound in the presence of the same unlabeled peptide at a concentration of 1 μM, and was ˜1% of total radioactivity added for each tracer. The maximum specific binding (B₀) was the total radioactivity bound in the absence of competing ligand, corrected for nonspecific binding, and for each tracer, ranged from 8% to 20% of the total radioactivity added. Nonlinear regression was used to calculate binding IC₅₀ values (see below). Scatchard transformations of homologous competition binding data derived from studies with 26 fmol of ¹²⁵I-[Aib^{1,3},M]PTH(1-21) were employed for estimations of apparent equilibrium dissociation constant (kDapps) and total number of ligand binding sites (Bₘₐₓ), assuming a single class of binding sites and equal affinities of the iodinated and non iodinated ligand.
Peptides PTH(1-34) ([Nle^{8,21}, Tyr³⁴]PTH(1-34)amide), [M]PTH(1-14) (M = Ala^{3,12}, Gln¹⁰, Har¹¹, Trp¹⁴), and [M]PTH(1-14 analogs, or C-terminally truncated derivatives thereof, containing α-aminoisobutyric acid (Aib) substitutions at the indicated positions were functionally evaluated in HKRK-B28 cells. “M” in [Aib^{1,3}, M]PTH(1-21) = Nle⁸, Gln¹⁰, Har¹¹, Ala¹², Trp¹⁴, Arg¹⁹ and Tyr²¹. The basal cAMP values (not subtracted) were 4.0 ± 0.1 pmole/well (n = 10). Peptides were based on the rat PTH sequence and were carboxy-amidated. Competition binding analyses were performed with ¹²⁵I-[M]PTH(1-21 )amide (Ala^{1,3}) as tracer for 4 h at 4° C. Data are means (±S.E.M.) Of the number of experiments indiated (n).

Binder	IC50 [µM]
B1	148
B2	31
B3	490
B6	9.1
B8	50
B9	0.053

These binders were tested against T1, wild-type human PTH/PTHrP receptor … (assay: competition binding, 125I-[M]PTH(1-21) tracer, HKRK-B28 cells).
Method: as §1, with “Cells” for “Competition Binding. Binding reactions were performed with HKRK-B28 cells or in COS-7 cells in 24-well plates. The cells were rinsed with 0.5 mL of binding buffer, and then treated successively with 100 μL binding buffer, 100 μL of binding buffer containing various amounts of unlabeled competitor ligand, and 100 μL of binding buffer containing ca. 100,000 cpm of ¹²⁵I-[M]PTH(1-21) or ¹²⁵I-[Aib^{1,3},M]PTH(1-21)} (ca. 26 fmol; final volume=300 μL). Incubations were 4 to 6 h at 4° C., at which time near equilibrium conditions were attained. Cells”
Relative to the apparent binding affinity of [M]PTH(1-14), most of the Aib substitutions reduced affinity, in accordance with the corresponding effects on cAMP-signaling potency (Table 1).

Binder	fold reduction in affinity relative to [M]PTH(1-14) [fold]	fold improvement in affinity relative to [M]PTH(1-14) [fold]
B1	> 10	–
B2	~3	–
B3	> 10	–
B4	> 10	–
B5	> 10	–
B6	–	1.4
